The values below come from patent US20230295310A1 (ABCELLERA BIOLOGICS, published 2023).

In the test the target is human CD3 (human, UniProt P07766 23-207; P04234 22-171; P09693 23-182). Briefly: cell-based or functional assay.

Numbering of substitutions follows the chain as printed.

Chain of human CD3 (P07766 23-207, chain 1 of 3): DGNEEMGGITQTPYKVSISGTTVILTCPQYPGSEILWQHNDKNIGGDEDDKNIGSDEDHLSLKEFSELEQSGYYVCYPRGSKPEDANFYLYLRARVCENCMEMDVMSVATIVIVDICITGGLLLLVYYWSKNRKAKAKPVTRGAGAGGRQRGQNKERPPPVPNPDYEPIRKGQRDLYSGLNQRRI
Chain of human CD3 (P04234 22-171, chain 2 of 3): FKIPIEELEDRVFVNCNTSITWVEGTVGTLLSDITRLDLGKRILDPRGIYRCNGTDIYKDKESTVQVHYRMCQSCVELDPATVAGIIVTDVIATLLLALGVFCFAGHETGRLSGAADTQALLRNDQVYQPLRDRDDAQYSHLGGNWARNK
Chain of human CD3 (P09693 23-182, chain 3 of 3): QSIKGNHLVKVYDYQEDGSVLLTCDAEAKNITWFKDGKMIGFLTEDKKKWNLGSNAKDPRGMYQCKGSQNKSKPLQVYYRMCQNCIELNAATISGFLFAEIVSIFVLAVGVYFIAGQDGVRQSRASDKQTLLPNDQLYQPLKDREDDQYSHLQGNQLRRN

B1: mAb 73 (antibody, V domains shown)
VH: EVELVESGGGLVQPGRSLRLSCAASGFTFDDKVMHWVRQAPGKGLEWVSCINWNSGHIGYADSVKGRFTISRDNARTSLYLQMNSLRPEDTALYYCVREGNYDFWSGYYRGFFDLWGRGTLVTVSS
VL: DIQMTQSPSSLSASVGDRVTITCRASQGIRNDLGWYQQKPGKAPKRLIYAASSLQGGVPSRFSGSGSGTEFTLTISSLQPEDFATYYCLQHTSYPFTFGQGTKLEIK
As for B1, the “CD4 EC50 (nM); CD69/CD25 on human T cells, plate-coated antibody” value (“CD4 EC50 (nM); CD69/CD25” below) was 24.8 nM and the “CD8 EC50 (nM); CD69/CD25 on human T cells, plate-coated antibody” value (from here on “CD8 EC50 (nM); CD69/CD25”) turned out to be 23 nM.

B2: mAb 74 (antibody, V domains shown)
VH: EVQLVESGGGLVQPGRSLRLSCAASGFTFADYVMHWVRQAPGKGLEWVSGINWNNARIGYVGSVKGRFTISRDNAKNSLYLQMTSLRVEDTALYHCVREGNFDFWSAYYRGFLDLWGRGTLVTVSS
VL: B1 VL with N31S, A50G, T92N, F96Y
As for B2, the “CD4 EC50 (nM); CD69/CD25” value is 20.9 nM and the “CD8 EC50 (nM); CD69/CD25” value came out at 19.6 nM.

B3: mAb 94 (antibody, V domains shown)
VH: QVHLVESGGGVVQPGRSLRLSCSASGFTFSGYGMHWVRQAPGKGLEWVALIYFDGRNKYYADSVKGRFTISRDNSKNTLYLQMNSLRAEDTAVYYCARGGGYNWFDPWGQGTLVTVSS
VL: DIQMTQSPSSLSASVGDRVTITCRASQSISNYLNWYQQKPGKAPKLLIYLASSLQSGVPSRFSGSGSGTDFTLTINSLQPEDFASYYCQLSYSSPFTFGPGTKVDVN
Regarding B3, the “CD4 EC50 (nM); CD69/CD25” value came out at 11.7 nM and the “CD8 EC50 (nM); CD69/CD25” value turned out to be 12.4 nM.

B4: mAb 95 (antibody, V domains shown)
VH: B3 VH with V2A
VL: B3 VL with S30N, N34S, S53N, N76S, S85T, S93R, N107K
Regarding B4, the “CD4 EC50 (nM); CD69/CD25” value is 14.4 nM and the “CD8 EC50 (nM); CD69/CD25” value worked out at 15.5 nM.

B5: mAb 96 (antibody, V domains shown)
VH: B3 VH with V2A, A49S
VL: B3 VL with S30N, N34S, S53N, S65N, N76S, S85T, S93R, N107K
On to B5, for which the “CD4 EC50 (nM); CD69/CD25” value is 17.2 nM and the “CD8 EC50 (nM); CD69/CD25” value was found to be 19.5 nM.

B6: mAb 79 (antibody, V domains shown)
VH: QVQLVQSGAEVKKPGASVKVSCKASGYIVTGYYMHWVRQAPGHGLEWMGWINPNSGGTNFAQNFQGRVTMTRDTSISTFYMDLNRLTSDDTAVYYCARGGAPVSYWFFDLWGRGTLVTVSS
VL: DIQMTQSPSSLSASVGDRVTITCRASQNINSYLNWYHQKPGKAPKVLIYNTSTLKSGVPSRFSGSGSGTYFTLTISSLQPEDFATFYCQQSHSTPFTFGPGTKVDIK
For the molecule B6, the “CD4 EC50 (nM); CD69/CD25” value is 10.4 nM and the “CD8 EC50 (nM); CD69/CD25” value is 11 nM.

B7: mAb 85 (antibody, V domains shown)
VH: B6 VH with I28T, H43Q, T87R
VL: B6 VL with N28S, N30S, S31R, H37Q, T53S, Y70D, A84G
Regarding B7, the “CD4 EC50 (nM); CD69/CD25” value is 9.43 nM and the “CD8 EC50 (nM); CD69/CD25” value came out at 10.3 nM.

B8: mAb 77 (antibody, V domains shown)
VH: EVQLVESGGGLVQPGGSLRLSCAASGFTFSNYWMSWVRQAPGKGLEWVANIKQDGSEKYYVDSVRGRFTISRDNAKKSLYLQMNSLRAEDTAVYYCARDNSNYAYWYFDIWGRGTLVTVSS
VL: DIQMTQSPSTLSVSVGDRVTITCRASQSIRKWLAWYQQKPGKAPKLLIFKASSLESGVPSRFSGSGSGTEFTLTISSLQPDDFATYYCQQYDTYSRTFGQGTKVEIK
Consider B8, for which the “CD4 EC50 (nM); CD69/CD25” value amounted to 12.9 nM and the “CD8 EC50 (nM); CD69/CD25” value was 13.1 nM.

B9: mAb 78 (antibody, V domains shown)
VH: B8 VH with N31S, R65K, K77N, N102P, Y103S, A104F, I110L
VL: B8 VL with V13A, I29L, R30S, K31R, F49Y, D92Y
Take B9: the “CD4 EC50 (nM); CD69/CD25” value is 12.2 nM and the “CD8 EC50 (nM); CD69/CD25” value turned out to be 12.2 nM.
